# Changes are numbered by the printed parent chain. Names may count otherwise.
# B1: variant CD80 IgV-Fc E35D/M47L (Fc fusion)
# chain: VIHVTKEVKEVATLSCGHNVSVEELAQTRIYWQKDKKMVLTMMSGDLNIWPEYKNRTIFDITNNLSIVILALRPSDEGTYECVVLKYEKDAFKREHLAEVTLSVKAD
# B2: variant CD80 IgV-Fc H18Y/E35D/V68M/L97Q (Fc fusion)
# chain: B1 chain with H18Y, L47M, V68M, L97Q
# B3: variant CD80 IgV-Fc E35D/D46V/M47L (Fc fusion)
# chain: B1 chain with D46V
# B4: variant CD80 IgV-Fc E35D/D46E/M47V/L97Q (Fc fusion)
# chain: B1 chain with D46E, L47V, L97Q
# B5: variant CD80 IgV-Fc Q33L/E35D/M43V/M47I/A71G (Fc fusion)
# chain: B1 chain with Q33L, M43V, L47I, A71G
# B6: variant CD80 IgV-Fc Y31S/E35D/M47L/T79L/E88G (Fc fusion)
# chain: B1 chain with Y31S, T79L, E88G
# B7: variant CD80 IgV-Fc E35D/D46V/L85Q (Fc fusion)
# chain: B1 chain with D46V, L47M, L85Q
# B8: variant CD80 IgV-Fc Q33L/E35D/N48K/L85Q/L97Q (Fc fusion)
# chain: B1 chain with Q33L, L47M, N48K, L85Q, L97Q
# B9: variant CD80 IgV-Fc E35D/M47V/A71G/L85M/L97Q (Fc fusion)
# chain: B1 chain with L47V, A71G, L85M, L97Q
# B10: variant CD80 IgV-Fc H18Y/Y31H/E35D/M47V/A71G/L85Q (Fc fusion)
# chain: B1 chain with H18Y, Y31H, L47V, A71G, L85Q
# B11: variant CD80 IgV-Fc Q27H/Q33L/E35D/M47V/N55D/L85Q/K89N (Fc fusion)
# chain: B1 chain with Q27H, Q33L, L47V, N55D, L85Q, K89N
# B12: variant CD80 IgV-Fc E35D/M47I/E77A/L85Q/R94W (Fc fusion)
# chain: B1 chain with L47I, E77A, L85Q, R94W
# B13: variant CD80 IgV-Fc Q33K/E35D/D46V/L85Q (Fc fusion)
# chain: B1 chain with Q33K, D46V, L47M, L85Q
# B14: variant CD80 IgV-Fc E35D/M47V/N48K (Fc fusion)
# chain: B1 chain with L47V, N48K
# B15: variant CD80 IgV-Fc Q33L/E35D/M43I/L85Q/R94W (Fc fusion)
# chain: B1 chain with Q33L, M43I, L47M, L85Q, R94W
# B16: variant CD80 IgV-Fc E35D/D46V/V68M (Fc fusion)
# chain: B1 chain with D46V, L47M, V68M
# B17: variant CD80 IgV-Fc H18L/V22A/E35D/M47L/N48T/L85Q (Fc fusion)
# chain: B1 chain with H18L, V22A, N48T, L85Q
# B18: variant CD80 IgV-Fc Q33L/E35D/M47L/V68M/L85Q/E88D (Fc fusion)
# chain: B1 chain with Q33L, V68M, L85Q, E88D
# B19: variant CD80 IgV-Fc H18Y/V20A/Q33L/E35D/M47V/Y53F (Fc fusion)
# chain: B1 chain with H18Y, V20A, Q33L, L47V, Y53F
# B20: variant CD80 IgV-Fc Q33L/E35D/M47L/A71G/F92S (Fc fusion)
# chain: B1 chain with Q33L, A71G, F92S
# B21: variant CD80 IgV-Fc V22A/R29H/E35D/D46E/M47I (Fc fusion)
# chain: B1 chain with V22A, R29H, D46E, L47I
# B22: variant CD80 IgV-Fc E35D/M47V/N48K/V68M (Fc fusion)
# chain: B1 chain with L47V, N48K, V68M
# B23: variant CD80 IgV-Fc E35D/M47V/V68M/K89N (Fc fusion)
# chain: B1 chain with L47V, V68M, K89N
# B24: CD80 V4M/L70Q/A91G/I118V/T120S/T130A/K169E ECD-Fc (Fc fusion)
# chain: VIHMTKEVKEVATLSCGHNVSVEELAQTRIYWQKEKKMVLTMMSGDMNIWPEYKNRTIFDITNNLSIVIQALRPSDEGTYECVVLKYEKDGFKREHLAEVTLSVKADFPTPSISDFEVPSSNIRRIICSASGGFPEPHLSWLENGEELNAINTTVSQDPETELYAVSSELDFNMTTNHSFMCLIKYGHLRVNQTFNWNTTKQEHFPDN
# B25: CD80 I67T/L70Q/A91G/I118V/T120S ECD-Fc (Fc fusion)
# chain: B24 chain with M4V, I67T, A130T, E169K, N196H
# B26: CD80 K37E/F59S/L70Q/A91G/T120S/T130A ECD-Fc (SEQ ID NO 1397) (Fc fusion)
# chain: B24 chain with M4V, K37E, F59S, E169K, K185E
# B27: CD80 A91G/L102S ECD-Fc (Fc fusion)
# chain: B24 chain with M4V, Q70L, L102S, V118I, S120T, A130T, E169K
# B28: CD80 S44P/L70Q/A91G/T130A ECD-Fc (Fc fusion)
# chain: B24 chain with M4V, S44P, V118I, S120T, E169K
# B29: CD80 A91G/S103P ECD-Fc (Fc fusion)
# chain: B24 chain with M4V, Q70L, S103P, V118I, S120T, A130T, E169K
# B30: variant CD80 IgV-Fc E35D/N48K/V68M (Fc fusion)
# chain: B1 chain with L47M, N48K, V68M
# Target: human PD-L1 (human) (UniProt Q9NZQ7)
# Assay: flow cytometry, CHO cells expressing huPD-L1
# human PD-L1 (human), sequence (Q9NZQ7 19-290): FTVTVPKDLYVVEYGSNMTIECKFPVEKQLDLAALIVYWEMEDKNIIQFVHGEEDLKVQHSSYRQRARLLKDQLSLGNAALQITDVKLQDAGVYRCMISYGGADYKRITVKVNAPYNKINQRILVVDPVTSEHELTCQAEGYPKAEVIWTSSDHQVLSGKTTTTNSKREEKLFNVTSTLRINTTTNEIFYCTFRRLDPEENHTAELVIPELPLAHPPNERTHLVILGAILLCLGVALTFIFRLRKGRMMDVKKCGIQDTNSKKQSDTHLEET
row,MFI at 33.3 nM [MFI],Binder
1,7530,B1
2,122000,B2
3,7990,B3
4,19500,B4
5,78000,B5
6,38900,B6
7,4040,B7
8,45200,B8
9,61700,B9
10,76400,B10
11,14800,B11
12,64500,B12
13,26700,B13
14,4850,B14
15,29000,B15
16,26100,B16
17,98100,B17
18,126000,B18
19,121000,B19
20,28000,B20
21,25400,B21
22,23500,B22
23,21800,B23

# Target: human CTLA-4 (human) (UniProt P16410)
# Assay: flow cytometry, Expi293F cells transfected with CTLA-4
# human CTLA-4 (human), sequence (P16410 36-223): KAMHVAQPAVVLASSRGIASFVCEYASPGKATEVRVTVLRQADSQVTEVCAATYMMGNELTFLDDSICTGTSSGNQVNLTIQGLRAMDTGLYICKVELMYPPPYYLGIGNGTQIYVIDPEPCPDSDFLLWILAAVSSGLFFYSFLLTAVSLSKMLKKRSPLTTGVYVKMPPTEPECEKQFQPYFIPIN
MFI [MFI],parental ratio,Binder
263,1.26,B24
160,0.77,B25
74,0.36,B26
6,0.03,B27
134,0.64,B28

# Target: human PD-L1 (human) (UniProt Q9NZQ7)
# Assay: flow cytometry, CHO cells expressing huPD-L1; MFI ratio to WT CD80 ECD-Fc (R&D)
row,Fold change to WT [fold],Binder
1,15.3,B2
2,2.45,B4
3,9.82,B5
4,4.9,B6
5,5.69,B8
6,7.77,B9
7,9.61,B10
8,1.86,B11
9,8.12,B12
10,3.36,B13
11,3.65,B15
12,12.3,B17
13,15.8,B18
14,15.2,B19
15,3.53,B20
16,3.2,B21

# Target: CD28 (human) (UniProt P10747)
# Assay: flow cytometry, Jurkat/IL2 reporter cells (endogenous CD28)
row,MFI at 33.3 nM [MFI],Binder
1,299,B2
2,371,B4
3,284,B5
4,278,B6
5,279,B8
6,339,B9
7,268,B10
8,269,B11
9,272,B12
10,257,B13
11,272,B15
12,434,B17
13,264,B18
14,260,B19
15,366,B20
16,323,B21

# Target: human CTLA-4 (human) (UniProt P16410)
# Assay: flow cytometry, CHO cells expressing huCTLA4; MFI ratio to WT CD80 ECD-Fc (R&D)
row,Fold change to WT CD80 [fold],Binder
1,0.97,B2
2,1.71,B4
3,0.08,B5
4,0.01,B6
5,0.01,B8
6,1.34,B9
7,0.02,B10
8,0.31,B11
9,1.38,B12
10,0.05,B13
11,0.01,B15
12,2.09,B17
13,0.02,B18
14,0.02,B19
15,0.01,B20
16,0.43,B21

# Target: human PD-L1 (human) (UniProt Q9NZQ7)
# Assay: flow cytometry; binding to PD-L1 cells against binding of the same variant to CD28 cells
row,Ratio of PDL1:CD28,Binder
1,407,B2
2,52,B4
3,275,B5
4,140,B6
5,162,B8
6,182,B9
7,285,B10
8,55,B11
9,238,B12
10,104,B13
11,107,B15
12,226,B17
13,476,B18
14,463,B19
15,77,B20
16,79,B21

# Target: human CTLA-4 (human) (UniProt P16410)
# Assay: flow cytometry, CHO cells expressing huCTLA4
row,MFI at 33.3 nM [MFI],Binder
1,173000,B2
2,305000,B4
3,14000,B5
4,1100,B6
5,1180,B8
6,239000,B9
7,3840,B10
8,56100,B11
9,247000,B12
10,8510,B13
11,1080,B15
12,374000,B17
13,3530,B18
14,2880,B19
15,2110,B20
16,77400,B21

# Target: CD28 (human) (UniProt P10747)
# Assay: flow cytometry, Expi293F cells transfected with CD28
MFI [MFI],parental ratio,Binder
89,0.94,B24
98,1.03,B25
20,0.21,B26
6,0.06,B27
39,0.41,B29
88,0.92,B28

# Target: CD28 (human) (UniProt P10747)
# Assay: flow cytometry, Jurkat/IL2 reporter cells (CD28)
row,MFI at 33.3 nM [MFI],Binder
1,411,B1
2,196,B7
3,642,B30

# Target: human PD-L1 (human) (UniProt Q9NZQ7)
# Assay: flow cytometry, Expi293F cells transfected with PD-L1
MFI [MFI],parental ratio,Binder
6,0.09,B24
5,0.08,B25
6,0.08,B26
5,0.08,B27
9,0.13,B29
5,0.07,B28

# Target: human CTLA-4 (human) (UniProt P16410)
# Assay: flow cytometry, CHO cells expressing huCTLA-4
row,MFI at 33.3 nM [MFI],Binder
1,48000,B1
2,45000,B3
3,48000,B7
4,47400,B14
5,31200,B16
6,33600,B30
7,32900,B22
8,29500,B23

# Target: CD28 (human) (UniProt P10747)
# Assay: flow cytometry, Jurkat/IL2 reporter cells (endogenous CD28); MFI ratio to WT CD80 ECD-Fc (R&D)
row,Fold change to WT [fold],Binder
1,0.04,B2
2,0.05,B4
3,0.04,B5
4,0.04,B6
5,0.04,B8
6,0.04,B9
7,0.04,B10
8,0.04,B11
9,0.04,B12
10,0.03,B13
11,0.04,B15
12,0.06,B17
13,0.03,B18
14,0.03,B19
15,0.05,B20
16,0.04,B21

# Source: patent US20220177587A1, “METHODS AND USES OF VARIANT CD80 FUSION PROTEINS AND RELATED CONSTRUCTS” (Alpine Immune Sciences, Inc., priority 2018, published 2022)
